This assay deals with CD19-Fc (CD19-IgG1 Fc fusion protein) (UniProt P15391). Briefly: flow cytometry on cells. Particulars: for response (% Normalized Binding): n=3 independent donor replicates, untransduced background subtracted, normalized for % CAR-expressing T-cells, read off a plot; for response (% of cells in CD19-Fc binding gate): one representative example, untransduced 2%, not normalized, CD19-Fc concentration not stated for this panel, parent: 46.

The mark [1] stands for this setting: CD19-Fc 1.0µg/mL, parent: est. 73.
The mark [2] stands for this setting: CD19-Fc 0.5µg/mL, parent: est. 65.

Regarding “F-2 second generation (CD28+CD3ζ) CAR with the unmodified FMC63 scFv G01: VH CDR3 …>… (G>A at CDR3 position 5)”, the response (% Normalized Binding) under setting [1] came to 4.4. The response (% of cells in CD19-Fc binding gate) (myc+ 49% (parent F-2 myc+ 43%)) was found to be 2.

Turning to “F-2 second generation (CD28+CD3ζ) CAR with the unmodified FMC63 scFv G02: VH CDR3 …>… (G>A at CDR3 position 6)”, the response (% Normalized Binding) under setting [1] came out at 5.6. Besides, the response (% of cells in CD19-Fc binding gate) (myc+ 47% (parent F-2 myc+ 43%)) was found to be 2.

In the case of “F-2 second generation (CD28+CD3ζ) CAR with the unmodified FMC63 scFv Y03: VH CDR3 …>… (Y>A at CDR3 position 4)”, the response (% Normalized Binding) is 1.2 under setting [2] and 8.6 under setting [1]. Besides, the response (% of cells in CD19-Fc binding gate) (myc+ 43% (parent F-2 myc+ 43%)) was found to be 4.

For the substance “F-2 second generation (CD28+CD3ζ) CAR with the unmodified FMC63 scFv Y04: VH CDR3 …>… (Y>A at CDR3 position 8)”, the response (% Normalized Binding) is 41 under setting [2] and 65 under setting [1]. Also, the response (% of cells in CD19-Fc binding gate) (myc+ 78% (parent F-2 myc+ 43%)) is 28.

“F-2 second generation (CD28+CD3ζ) CAR with the unmodified FMC63 scFv Y05: VH CDR3 …>… (Y>A at CDR3 position 12)”: the response (% Normalized Binding) runs as follows: under setting [2], 70; under setting [1], 100. Further, the response (% of cells in CD19-Fc binding gate) (myc+ 46% (parent F-2 myc+ 43%)) was found to be 64.

For the origin of these results see article PMC8863855.
